Read-outs that look alike come from different tables or passages of the source.
Tests used:
[1] = Ex vivo biodistribution and blood clearance in healthy Balb/c mice; details: for tissue uptake at 5 min / tissue uptake at 0.5 h / tissue uptake at 1 h / tissue uptake at 2 h / tissue uptake at 4 h / tissue uptake at 6 h: mouse, 37 MBq, total radioactivity; for tissue uptake at 5 min: 5 min after IV injection; for tissue uptake at 0.5 h: 30 min after IV injection; for tissue uptake at 1 h: 1 h after IV injection; for tissue uptake at 2 h: 2 h after IV injection; for tissue uptake at 4 h: 4 h after IV injection; for tissue uptake at 6 h: 6 h after IV injection
Protocol: The ex vivo biodistribution analysis performed with healthy Balb/c mice is presented in Figure 2 and Figure 3, and Table 1. Values are expressed as a percentage of injected activity per gram (%IA/g) of tissue and per milliliter (%IA/mL) of blood.
(§1) […] Animals were deeply anesthetized and euthanized at the corresponding biodistribution time point. Blood, brain, spleen, heart, stomach, liver, lungs, kidneys, pancreas, muscle, bone, small intestine, and large intestine were collected and weighed. The radioactivity of each organ/tissue was then determined using the above-mentioned automatic gamma counter. The radioactivity was evaluated as the percentage of injected activity per gram of organ/tissue (%IA/g), using the same injected dose activity as a standard. Receptor-blocking studies in tumor models were also carried out by co-administration of 100 μg of cold-conjugated peptide along with radiopeptide.

[2] = Biodistribution in SCID mice bearing MCF-7 xenografts; format: in vivo; details: female, SCID, mouse, total radioactivity, MCF-7 model, 60 min p.i., 0.1 mL/18.5 MBq IV
Protocol: To evaluate the uptake of the radiolabeled peptide by breast tumors, additional biodistribution studies were performed in SCID mice bearing MCF-7 and MDA-MB-231 xenografts (Table 2). […] The tumor uptakes of the radiolabeled conjugate were 9.30 ± 3.25% for MCF-7 and 4.93 ± 1.01% for MDA-MB-231 (Figure 5). The tumor-to-muscle ratios were 5.65 ± 0.94 for the MCF-7 model and 7.78 ± 3.20 for the MDA-MB-231 model (Figure 6).
The animals used in this experiment were provided by the Nuclear and Energy Research Institute (IPEN/CNEN-SP) vivarium. Every effort was made to minimize animal suffering per International Ethical Guidelines. The experimental protocols used in this study were approved by the Scientific Ethics Committee of the IPEN/CNEN-SP. Adult female SCID mice were maintained under controlled environmental conditions (12 h light-dark cycle; constant temperature 21 ± 2 °C), with free access to water and food. Suspensions of cells (5 × 10^6 in 0.1 mL) were subcutaneously injected into the upper back regions of the mice.
as §1

[3] = bone, mean ± SD n = 5, read-out: Bone uptake
[4] = brain, mean ± SD n = 5, read-out: Brain uptake
[5] = heart, mean ± SD n = 5, read-out: Heart uptake
[6] = lung, mean ± SD n = 5, read-out: Lung uptake
[7] = muscle, mean ± SD n = 5, read-out: Muscle uptake
[8] = pancreas, mean ± SD n = 5, read-out: Pancreas uptake
[9] = spleen, mean ± SD n = 5, read-out: Spleen uptake
[10] = stomach, mean ± SD n = 5, read-out: Stomach uptake

## CCCC[C@H](NC(=O)[C@H](CCCNC(=N)N)NC(=O)[C@H](Cc1c[nH]c2ccccc12)NC(=O)[C@H](CSCC(=O)NCCCC[C@@H]1NC(=O)[C@@H](Cc2ccccc2)NC(=O)[C@H](CC(=O)O)NC(=O)CNC(=O)[C@H](CCCNC(=N)N)NC1=O)NC(=O)[C@@H]1CCCN1C(=O)[C@H](CC(N)=O)NC(=O)[C@@H](NC(=O)COCCOCCNC(=O)c1ccc(NN)nc1)[C@@H](C)CC)C(=O)N[C@@H](CCCNC(=N)N)C(=O)N[C@@H](Cc1ccc(O)cc1)C(N)=O [[^99mTc]HYNIC-cRGDfk-NPY, metal not drawn]
[1]; IV, 0.05 mL/18.5 MBq, exponential decay fit of %IA/mL
  Blood half-life: 23.04 min
[1]; IV, within 1 h
  decrease in blood activity: approximately 90%
[1]; from low brain uptake
  crossing of blood-brain barrier: did not cross the blood–brain barrier
[1]; [3]
  tissue uptake at 5 min: 3.19 ± 0.76 %ID/g
  tissue uptake at 0.5 h: 3.71 ± 1.37 %ID/g
  tissue uptake at 1 h: 2.52 ± 1.67 %ID/g
  tissue uptake at 2 h: 0.71 ± 0.22 %ID/g
  tissue uptake at 4 h: 0.46 ± 0.14 %ID/g
  tissue uptake at 6 h: 0.54 ± 0.28 %ID/g
[1]; [4]
  tissue uptake at 5 min: 0.37 ± 0.11 %ID/g
  tissue uptake at 0.5 h: 0.22 ± 0.15 %ID/g
  tissue uptake at 1 h: 0.12 ± 0.03 %ID/g
  tissue uptake at 2 h: 0.07 ± 0.01 %ID/g
  tissue uptake at 4 h: 0.04 ± 0.01 %ID/g
  tissue uptake at 6 h: 0.04 ± 0.01 %ID/g
[1]; [5]
  tissue uptake at 5 min: 4.3 ± 1.32 %ID/g
  tissue uptake at 0.5 h: 3.21 ± 1.22 %ID/g
  tissue uptake at 1 h: 1.04 ± 0.23 %ID/g
  tissue uptake at 2 h: 0.55 ± 0.07 %ID/g
  tissue uptake at 4 h: 0.35 ± 0.12 %ID/g
  tissue uptake at 6 h: 0.33 ± 0.09 %ID/g
[1]; [6]
  tissue uptake at 5 min: 9.8 ± 3.16 %ID/g
  tissue uptake at 0.5 h: 4.8 ± 2.67 %ID/g
  tissue uptake at 1 h: 2.64 ± 0.83 %ID/g
  tissue uptake at 2 h: 1.17 ± 0.2 %ID/g
  tissue uptake at 4 h: 0.63 ± 0.17 %ID/g
  tissue uptake at 6 h: 1.65 ± 2.02 %ID/g
[1]; [7]
  tissue uptake at 5 min: 2.16 ± 0.62 %ID/g
  tissue uptake at 0.5 h: 1.5 ± 0.41 %ID/g
  tissue uptake at 1 h: 0.68 ± 0.33 %ID/g
  tissue uptake at 2 h: 0.39 ± 0.09 %ID/g
  tissue uptake at 4 h: 0.22 ± 0.07 %ID/g
  tissue uptake at 6 h: 0.21 ± 0.03 %ID/g
[1]; [8]
  tissue uptake at 5 min: 3.39 ± 0.92 %ID/g
  tissue uptake at 0.5 h: 2.52 ± 0.89 %ID/g
  tissue uptake at 1 h: 1.17 ± 0.45 %ID/g
  tissue uptake at 2 h: 0.53 ± 0.1 %ID/g
  tissue uptake at 4 h: 0.35 ± 0.12 %ID/g
  tissue uptake at 6 h: 0.34 ± 0.11 %ID/g
[1]; [9]
  tissue uptake at 5 min: 6.06 ± 2.9 %ID/g
  tissue uptake at 0.5 h: 6.14 ± 2.29 %ID/g
  tissue uptake at 1 h: 3.41 ± 1.17 %ID/g
  tissue uptake at 2 h: 2.22 ± 0.37 %ID/g
  tissue uptake at 4 h: 1.69 ± 0.34 %ID/g
  tissue uptake at 6 h: 1.98 ± 0.63 %ID/g
[1]; [10]
  tissue uptake at 5 min: 8.05 ± 2.56 %ID/g
  tissue uptake at 0.5 h: 7.17 ± 1.38 %ID/g
  tissue uptake at 1 h: 3.97 ± 0.78 %ID/g
  tissue uptake at 2 h: 2.62 ± 0.68 %ID/g
  tissue uptake at 4 h: 1.81 ± 0.5 %ID/g
  tissue uptake at 6 h: 1.79 ± 0.58 %ID/g
[2]; bone, Block with excess cold peptide, n = 3, read-out: Bone uptake
  tissue uptake at 1 h: 1.08 ± 0.77 %ID/g
[2]; bone, Non-Block, n = 5, read-out: Bone uptake
  tissue uptake at 1 h: 1.4 ± 0.72 %ID/g
[2]; brain, Block with excess cold peptide, n = 3, read-out: Brain uptake
  tissue uptake at 1 h: 0.08 ± 0.01 %ID/g

From publication PMC11510292, “Heterobivalent Dual-Target Peptide for Integrin-αvβ3 and Neuropeptide Y Receptors on Breast Tumor” (Pharmaceuticals, 2024)
